Data published in patent US20150266949A1 (INFLARX, published 2015).

Tests used:
human C5a [1] = target: T1, human C5a (human, UniProt P01031 678-751); experiment: cell-based or functional assay
T1 sequence: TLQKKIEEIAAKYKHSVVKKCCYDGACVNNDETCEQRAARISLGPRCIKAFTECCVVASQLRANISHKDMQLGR

human C5a [2] = target: T1, human C5a; experiment: cell-based or functional assay; remark: listed apart in the source
human C5a [3] = target: T1, human C5a; experiment: method not stated (Table 3, column Affinity)

Row | Binder | blocking activity to C5a bioactivity (C5a-induced lysozyme release assay), molar ratio of antibody to C5a 1:2 (human C5a [1]) [%] | Blocking activity (inhibition of C5a-induced lysozyme release from human whole blood cells) at a ratio of Ab to C5a of ½:1 (human C5a [2]) [%] | Kd (human C5a [3]) [nM]
1 | INab308 (antibody, V domains shown, Mouse monoclonal antibody from a hybridoma (BALB/c mice immunized with recombinant human C5a), purified from ascites on protein A; said to be bivalent) VH: QVQLQQSGPQLVRPGTSVKISCKASGYSFTTFWMDWVKQRPGQGLEWIGRIDPSDSESRLDQRFKDRATLTVDKSSSTVYMQLSSPTSEDSAVYYCARGNDGYYGFAYWGQGTLVTVSS VL: DIVLTQSPASLAVSLGQRATISCKASQSVDYDGDSYMKWYQQKPGQPPKLLIYAASNLQSGIPARFSGSGSGTDFTLNIHPVEEEDAATYYCQQSNEDPYTFGGGTKLEIK | 94 | ≥ 90 | 0.5
2 | INab708 (antibody, V domains shown, Mouse monoclonal antibody from a hybridoma (BALB/c mice immunized with recombinant human C5a), purified from ascites on protein A; said to be bivalent) VH: VQLLESGAELMKPGASVKISCKATGNTFSGYWIEWVKQRPGHGLEWIGEILPGSGSTNYNEKFKGKATLTADTSSNTAYMQLSSLTSEDSAVYYCTRRGLYDGSSYFAYWGQGTLVTVSA VL: DIVLTQSPASLAVSLGQRATISCKASQSVDYDGDSYMNWYQQKPGQPPKLLIYAASNLGSGIPARFSGSGSGTDFTLNIHPVEEEVAATYYCQQNNEDPLTFGAGTLLELK | 100 | ≥ 90 | 0.51
